From the DeepSol protein solubility set

Assay: soluble on expression in E. coli; label from the status in PepcDB or PDB records

Sequence	soluble on expression in E. coli
MGKVYKKVELVGTSEEGLEAAIQAALARARKTLRHLDFFEVKEIRGTIGEAGVKEYQVVLEVGFRLEET	soluble
MTVQTAIFDLIKQAKTIIIHRHQRPDPDAIGSQLGLAAIIKASFPAKRVLTPGKQYHGFDWLGQMDEVTEADYQDALVLILDTANQPRIDGELWNQGKTIVKIDHHPNDDAFGDPQWVDVDASSTSEMIYNWYAPLAAELTLTANAARLLYAGIVGDTGRFLYSATKPSTMRAAAALMEAGADAEAVNRIEDTITLPVARLSAYVYEHLTQLDSGAAYVILTNAILDSFAIGDASTAGVVPLPGRIDTVKCWAIFVQQKEGDFRIRLRSKGPSINGVAKNHDGGGHALASGAKAKDQQEIETVVRELDQVASQYEKEVLEHHHHHH	not soluble
MKIGIVGATGYGGTELVRILSHHPHAEECILYSSSGEGNVYSEGYPHLTGLADQQLKPIDMNTIKHEIDIMFLAAPPGVSSELTPKLADAGITVIDLSGDLRIKEPAEYEKWYKRTAAPKAVIQEAVYGLAELNQLQIQQAKLIANPGCFPTAVLLGLAPLAQKKLLDESFVIVDAKTGVSGAGRKASMGTHFSELNDNFKIYKVNEHQHTPEIEQALNEWQPGLGPITFSAHLVPMTRGIMATMYTRLTCDLTADDLHDLYSEFYQDSYFVRVRPKGQYPQTKEVYGSNFCDIAVTLDERTNRVTIVSVIDNLMKGAAGQAVQNFNLMNGWNEETGLTIITPIYP	not soluble
MNRHSAGQSTPVRVATLDQLKPGVPTAFDVDGDEVMVVRDGDSVYAISNLCSHAEAYLDMGVFHAESLEIECPLHVGRFDVRTGAPTALPCVLPVRAYDVVVDGTEILVAPKEADHHHHHH	soluble
MSLYQRCFDNASETLFVAGKTPRLSRFAFSDDPKWESGHHVHDNETELIYVKKGVARFTIDSSLYVAHADDIVVIERGRLHAVASDVNDPATTCTCALYGFQFQGAEENQLLQPHSCPVIAAGQGKEVIKTLFNELSVILPQSKNSQTSSLWDAFAYTLAILYYENFKNAYRSEQGYIKKDVLIKDILFYLNNNYREKITLEQLSKKFRASVSYICHEFTKEYRISPINYVIQRRMTEAKWSLTNTELSQAEISWRVGYENVDHFAKLFLRHVGCSPSDYRRQFKNCFAEQEILSEFPQPVSLVGEGGSHHHHHH	soluble
MWKMLSSEYSILLIDDDADVLDAYTQLLEQSGYRVFACNNPFEAQAWIQPDWPGIVLSDVCMPGCSGIDLMMLFHQDDQQLPILLITGHGDVPMAVDAVKKGAWDFLQKPVDPGKLLSLVEEALRQRQSIIARRQYCQQTLQVELIGRSEWINQYRRRLQQLSETDIAVWLYGAPGTGRMTGARYLHQFGRNAQGEFVYRELTPDNAPQLNDFIALAQGGTLVLSHPEHLTREQQYHLVQLQSQEHRPFRLIGIGDTSLVELAASNHIIAELYYCFAMTQIACLPLTQRPDDIEPLFRHYLCKACQRLNHPVPEVGKEMLKEMMRRMWPNNVRELANAAELFTVGVLPLAETANPLMHVGTPTPLDRRVEDAERQIITEALNIHQGRINEVAEYLQIPRKKLYLRMKKYGLSKEHYKI	not soluble
MGSDKIHHHHHHMKDDQWLEARAHGDPMFPCNVYRVKEVNGQVIIHCHWHHEMEWIYMEAGEAEFQIGTKMTTVRAGEGLFIPSGHLHGAYPVSDKPFSLYATVVHPDFISSFGYDLIQSRYIDPFKDSERTGPIKLCPTHYWMSDMLTMLQATISQFQQKEEGYELVIKANLLQMMAELVKHFPRTEEQKTGTPQQIRQIKKVLQFIDEHYDEKLTIKQLANLVQMSEGHFSRFFKSIVRMTAVEYIHTQRLNKAARLLRETDRTIMDISMSVGFDHPSYFIKLFKRHKRCTPSEFRRIGLPTFSENMKT	not soluble
MTEMIRPRVKYVIGPDGSPLTIADLPPANTRRWVIRRKAEVVAAVRGGLLSLEEACERYTLTVEEFLSWQSSISDHGLAGLRTTRIQQYRHAAALEHHHHHH	soluble
MGSDKIHHHHHHERNKTLYWGGALWSPPSNWNPFTPWNAVAGTIGLVYEPLFLYDPLNDKFEPWLAEKGEWVSNNEYVLTLRKGLRWQDGVPLTADDVVFTFEIAKKYTGISYSPVWNWLGRIERVDERTLKFVFSDPRYQEWKQMLINTPIVPKHIWENKTEEEVLQAANENPVGSGPYYVESWADDRCVFKKNGNWWGIRELGYDPKPERIVELRVLSNNVAVGMLMKGELDWSNFFLPGVPVLKKAYGIVTWYENAPYMLPANTAGIYINVNKYPLSIPEFRRAMAYAINPEKIVTRAYENMVTAANPAGILPLPGYMKYYPKEVVDKYGFKYDPEMAKKILDELGFKDVNKDGFREDPNGKPFKLTIECPYGWTDWMVSIQSIAEDLVKVGINVEPKYPDYSKYADDLYGGKFDLILNNFTTGVSATIWSYFNGVFYPDAVESEYSYSGNFGKYANPEVETLLDELNRSNDDAKIKEVVAKLSEILLKDLPFIPLWYNGAWFQASEAVWTNWPTEKNPYAVPIGWNGWWQLTGIKTLFGIEAK	soluble
MRVYKPEDVPNVQLADSTRLVTDEAGLLSNAQEEVMNGRLRAIRSSHAVEFAVVTLPSIGDAPLEDFTLKLARQWGVGNEKNNNGLLLVLVLDQRRVRFETGYGLEGYLPDGLLSRIIHDRMIPHFRSGNYAEGLSEGVLAVQQVLDGSLEHHHHHH	soluble
MANFTAADVKRLRELTGAGMLACKNALAETDGDFDKAVEALRIKGAKDVGKRAERATAEGLVAAKDGALIELNCETDFVAKNAEFQTLADQVVAAAAAAKPADVDALKGASIGDKTVEQAIAELSAKIGEKLELRRVAIFDGTVEAYLHRRSADLPPAVGVLVEYRGDDAAAAHAVALQIAALRARYLSRDDVPEDIVASERRIAEETARAEGKPEQALPKIVEGRLNGFFKDAVLLEQASVSDNKKTVKALLDVAGVTVTRFVRFEVGQA	not soluble
MGSDKIHHHHHHMIKRNAAKPVRVAPPMMEEQEVSTSTLQELLEKEETVSNLIFSKGREEGISKSYKSFKNCTFRNQTFSECKFRSSQLADIRFENCDLSNISFAESSLYRVEFIACKLLGTNLSETTMNHVLLHDCNASYINLAMSKMNQVRFSHCHFRNGSFNDCRFSSVAFDSCDLVEADFSHAPLRGIDLRTSRIGGITLNISDLKGAVITSLQAMDLLPLLGVIIED	not soluble
THGAQHANPVVSGSVSPRPAPAKEQPSVAPSQSSVPPQPSIGEQRRQPETTAPTITEDKPEQTKVVPPTRPMATSTVGSEGRFTLRGIRNKQEQLQNNIQEVRTEMTESFDEEQLQLAWIEFAETKLSEEIHLKETMANCLPKLRPGTSAFEVEVLNSRQEEEINNVSARLLSFLADKLCNTTIRMNVRVSESTSLNRVPVSLDEKIERLNQENPLFDELRMRLGLSLV	not soluble
GPGSMLRATILARGTLVKIGRGPNNVTESASNALLESLQDHGYCYIQHPFIQKTILDQLHRDCRIFFEQYVLHLHDAAAQGSLKRNNLHNYNCTQLSPYELESIKSPSGFRGYYRYVGASGIDDAIECFSVGRDDVADPAVLRRDYYKQAGWEESEYLSMISRRNPWDILLNHVNSIPASGSGIVPGMDRNDNFMSDFKDMMMAYYDLCYTVSMDVMRHISCGLGIRPSIPQGGSDPTMDFELEYFTSFHQKRDCDLQAKYYPQLGAGARLKNGVDIQNQRSAHNPDGVKVLRRKGAKTQPLVRTASTEDGDGEKDVTVRLDTHKDLSTITLLSQDSLGGLEVWDEEKASYMAVPVLEDALLVNAGLFLEKWTGGLIEATPHRVRNAKGGSSRCSIVFFALPDHDARIEPLLQQEDNPAVDAQDSFLAGDMMPAP	not soluble
IDGDSITNKQIKKFWRQKQIIEEDHLYSAIKAAARVRARNLSDEDYKRFEESLDMEDLETEDHQGLKDWWTKSKYAYLNQPALGSADSLKRKRFSTYTPNCFSFKPCNPLYATSLNVF	not soluble
MKIMCKQEYYNQVVQYAESIKDTSLQNCMERLEAWEKNPDRPCEIELYHDWAPYSFGFTQRYPDGSRGIVGGLLYHGSPDESFAVQLTPFKGWQIHT	not soluble
FRKIAQAYNLDLLVHHANAQLKQLVRRYRLKRGGSMLGLLVMDTEMGDELRSVHSLSGGETFLVSLALALGLASMASSTLRIESLFIDEGFGSLDPESLQLAMDALDGLQAQGRKVGVISHVQEMHERIPVQIRVRRQGNGLSTI	not soluble
